Data published in the supplement of paper PMC9942255.

Test system: Bacillus subtilis DB104 (SP-AmyQ fusion secretion)
Test: AmyQ secretion efficiency, weighted average sort bin (1 = best secretion, 10 = worst) (bin number (weighted average, 1-10)); higher = lower secretion efficiency
Procedure, shortened: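 Occupied alginate beads were sorted by large-particle flow cytometry into 10 equally populated bins according to green/red fluorescence ratio. Each bead (~65 nL) held fluorescein-starch and about 0.3 cells of a B. subtilis DB104 library expressing mature AmyQ fused to designed signal peptides from the amyE locus, and beads were grown about 13 h at room temperature and stained with nile red before sorting. Bin amplicons were Illumina-sequenced, and the secretion score is the read-frequency-weighted average bin number, normalised to beads per bin, excluding low-abundance sequences.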

Sequence | AmyQ secretion efficiency
MRPVFPLILSAVLFLSCFFGARQTEASCSKR | 3.44
MKKLVLCVSILAVILSGVALVQLS | 5.7
MKRLFMKASLVLFAVVFVFAVKGAPMKAETH | 1.95
MKRRKTAYLLLGILCSAAVFLIGAPSRALGAEV | 2.77
MKSKWMSGLLLVAVGFSFTQVMEHAGET | 7.11
MKKRFSLIMMTGLLFGLTSPDEKAFAAEK | 2.56
MPYLKRVLLLLVTGLFMSLFAVTATASCQTG | 1.26
MGLGKKLKKKKAASFMSLSISLPGVQAAEG | 7.92
MKLAKRVSALTPSTTLAITAKIKEL | 7.25
MFNRLFRVCFLAALIMAFTLPNSGYAQKP | 2.99
MRHKIITFILAVVVIIIIGNMIGGGGGSEETSK | 7.2
MKRRLSTLLIGIMLLTFAPSAFAKQD | 1.82
MMSLLAAGIIGLLTVSIASPSFAAEK | 5.23
MPYLKRVLLLLVTGLFMSLFAVTATASGQTG | 1.24
MKLKSKLLLSCLALSTVFVATTIANIPTH | 5.95
MKKKQVSHAIIISVMLSFVIAVFHTIHASYLTP | 6.98
MKNLTKTSLLLAGLCTAAQMVFVTHASAEES | 3.46
MRSYIKVLTMCFLGLILFVPTALKDNS | 7.49
MKMKSGMEQAVSVLLLLSRLPVQASLTRK | 7.01
MSTGTILVIASILLSFLSVLSGGHHESKAFPV | 6.64
MKKIMSAFVGMVLLTIFCFSPQASAADD | 3.32

Sequence | AmyQ secretion efficiency
MTMLRKIRKWILLLCIIPLFAFTVIASGKEV | 6.76
MKVLLSALLLLLFAFEPSASTKKL | 5.63
MRKNRILALFVLSLGLLSFMVTPVSRASK | 8.98
MKLWMRKTLVVLFTIVTFGLVSPPAAQMADKP | 1.81
MKSKWMSGLLLVAVGFSFTQVMNHAGET | 5.68
MRSYIKGTGRCKLGLILFVPTALADNS | 6.59
MKRLFMKGSLVLFAVVFVFAVKGAPAKAETH | 3.72
MKRMIVRMTLPLLIVCLAFSSFSASARNASE | 3.81
MKKLLAAGIIGLLTVSIASPMFAAEK | 3.35
MKIRKILLSSALSFGMLISAVPALARKR | 5.61
MKKKQVMLALTAAAGLGLTALHSAPAAKAAPD | 2.15
MRKILALFVLSLGLLSFMVTPVSAASK | 1.58
MKRLFISSAVLLSILLPSGQAHAQSA | 2.34
MNKLKRLSMSKSRGYSVFIFSSHALAAQY | 6.58
MTMLRKIIGWILLLCPLFAFTVIASGKEV | 8.01
MKKRKRRVSALTPSTTLAITAKAKEL | 6.69
MGSSLAAGLTASAIVGTTLVVTPAEAATI | 4.99
MKRLLVSLRVWMVFLMNWVTPDRKTAADAVY | 5.95
MRKTIFAFLTGLMMFGTITAISASPD | 5.52
MRSYIKVLTMCFLGLILFVPTRLADNS | 6.28
MLKRTSLFISSAVLLSILLPSGQAHAQSA | 2.05

Sequence | AmyQ secretion efficiency
MIVSRQTRQRIIVFLSVIQPQPS | 6.7
MRKSLITLGLASVISIIVFLIAFTSKTASAETL | 2.48
MKKVKRAFIICLSLILSVLAAPPSGAKAESV | 1.67
MRNLTKTSLLLAGLCTAAQMVFVTHASAADE | 2.81
MKKIGLLFMLCLAALFTIGFPAQQADAAPR | 1.25
MKLWMRKTLVVLFTIVTFGLVSPPAALMQDKP | 2.54
MRKKTKNRLISSVLSTVVISSLLFPGAAFAGASSK | 1.5
MKKVLMAFIICLSLILSVLAAPPSGEKAESV | 6.63
MTKKGWQLPLVCVLLISGWLAPAASASAQTT | 1.79
MRSYIKVLTMCFLGLILFVEEDALADNS | 2.58
MKLKKRVSMFLVALTMCGGLFVFAAKAVKT | 5.56
MKQGKFSVKKRKLLMLTLVVAPKEKAEAASS | 8.14
MKKRLIGFLVLVPALIMSGITLKEANKK | 6.33
MKKGIIRQSQSQTGLFFALSTGITGVQAAPA | 7.14
MKIRKILLSSALSFGMLEEDDPALAAGT | 2.69
MKSKGSIMACLILFSFTITTFINTETISVFSN | 7.71
MLKKKWMVGLLAGCLAAGGFSYNCFATEN | 3.91
MKRKLLSSLAISALSLGLLVSAPTASFAASS | 1.56
MKRTWNVCLTALLSVLLVAGSVPFHAEAAPD | 2.13
MRGKSAVLLSLIMLIAGFLISFYFQM | 7.22
MKRCKRRRLIVCSLAAILLLIPSVSFAADS | 3.97
